In assay [1] the target is TssF-Strep (EAEC) (enteroaggregative Escherichia coli (EAEC) 17-2). In words: pull-down; soluble extracts of E. coli BL21(DE3) producing the TssKFGE wedge complex with TssG wild type or foot variants; TssF-Strep used to pull down TssG by affinity purification; level of copurified TssG quantified.
For assay [2], the system named is TssK-TssFGE (TssKFGE wedge complex). Nature of the assay: Biolayer interferometry (BLI), TssFGE binding to biotinylated TssK. The class given is biochemical, enteroaggregative Escherichia coli (EAEC). As to conditions: BLI, 47 μM TssFGE lysate, TssK preincubated with 1 mM peptide, kinetic buffer pH 7.3; mean ± SD of three independent assays. On the procedure: Streptavidin-tagged TssK was purified as described above. The TssK trimer was further polished by size exclusion chromatography using a Superose 6 10/300 GL (GE Healthcare) in 50 mM HEPES (pH 7.0), 150 mM NaCl at 0.25 ml/min. For biolayer interferometry (BLI) experiments, we used high-precision Strep (SAX) biosensors from Forté Bio (number 18-5117) on the BLItz machine (Forté Bio). The trimeric ligand TssK was biotinylated using equimolar N-hydroxysuccinimide (NHS)–polyethylene glycol 4 (PEG4)–biotin (Pierce EZ-Link; 21330) in 50 mM HEPES (pH 7.0), NaCl 150 mM for 1 h at room temperature before buffer exchange in CentriPure P2 (Generon; IRL) columns against 50 mM HEPES (pH 7.0), NaCl 150 mM to remove the excess biotin. BL21(DE3) cells were used to express the interacting analytes TssG-TssF-TssE. In addition, cells containing an empty plasmid were used as a control. Cells were broken as described above, and the clarified supernatants after centrifugation for 30 min at 20,000 × g contained the control and TssFGE lysate. Streptavidin biosensors were hydrated for 10 min in HEPES buffer before binding of the biotinylated TssK. Biotinylated TssK was loaded at 1.2 μM onto the SAX biosensors for 120 s, and then the excess TssK was dissociated in HEPES buffer for 120 s. For the remaining kinetic assays, we used kinetic buffer (PBS [pH 7.3] plus 0.02% Tween 20, 0.1% bovine serum albumin [BSA], 0.05% sodium azide) (Forté Bio number 18-5032) with orbital shaking at 2,200 rpm. Kinetic buffer (KB) was used to dilute the lysates and the peptide to decrease nonspecific signals. The unbound Strep sites were blocked with 2 μM control lysate for 120 s and washed with KB for 120 s. The kinetic assays were performed using three steps with different times: baseline, 30 s; association, 120 s; and dissociation, 120 s. All the following assays were performed in triplicate. […] In the first assay, we added 47 μM lysate expressing the analytes TssG, TssF, and TssE to the bound TssK. In the second assay, we added 1 mM wild-type (WT) BCP to the bound TssK before adding 47 μM TssF-TssG-TssE. In the third assay, to validate the specificity of the WT BCP we added 1 mM mutant BCP that lacks the binding residues to the bound TssK before adding 47 μM TssF-TssG-TssE. Last, to redemonstrate the specificity of the BCP-WT, we added 1 mM randomized BCP that contains the binding residues but out of order to the bound TssK before adding 47 μM TssF-TssG-TssE.
A general note: Biolayer interferometry detects binding as a change in optical thickness at a sensor tip.

In assay [3] the target is Strep-tagged TssK (EAEC) (enteroaggregative Escherichia coli (EAEC) 17-2). In words: BLI; as a7, but 1 mM mutated BCP added to the bound TssK before 47 μM TssFGE lysate.
Assay [4] shares this target. Nature of the assay: BLI; as a7, but 1 mM wild-type BCP added to the bound TssK before 47 μM TssFGE lysate.
Assay [5] has the same target. In words: BLI; as a7, but 1 mM randomized BCP added to the bound TssK before 47 μM TssFGE lysate.
The target is the same in assay [6]. In words: BLI; biotinylated TssK loaded at 1.2 μM on streptavidin (SAX) biosensors, blocked with control lysate; 47 μM TssFGE lysate in kinetic buffer (PBS pH 7.3, 0.02% Tween 20, 0.1% BSA); no peptide.
Assay [7] addresses TssK-6×His (EAEC) (enteroaggregative Escherichia coli (EAEC) 17-2). In words: native gel or EMSA; clarified BL21(DE3) lysates on a native 4 to 16% gel, immunoblot with anti-His antibodies.
The target in assay [8] is Strep-tagged TssK (EAEC) (enteroaggregative Escherichia coli (EAEC) 17-2). Nature of the assay: ITC; 25 μM TssK in the cell, 1 mM peptide in the syringe; 50 mM HEPES pH 7.0, 150 mM NaCl, 25°C; One Set of Sites model. (Isothermal titration calorimetry measures the heat released or taken up as one component is titrated into another.)

For “Flag-tagged TssG (EAEC) (natural protein)”, the amount of TssG copurified using TssF-based pulldown in assay [1] worked out at 74.8%.
For the molecule “Flag-tagged TssG with the foot 1 domain deleted (natural protein)”, the amount of TssG copurified using TssF-based pulldown in assay [1] amounted to 4.6%.
Still for that read-out and setting: then “Flag-tagged TssG with the foot 2 domain deleted (natural protein)”, with 1.1%.
With “SRPVAG-SRPVAG-SRPVAG (head to tail) [mutated BCP]”, the “maximum binding average response of TssFGE to TssK at 150 s in presence of peptide” value in assay [2] came to 0.169 ± 0.016 nm.
The same measure, in the same setting: then “SVRMPG-SPMRVG-SMVRPG (head to tail) [randomized BCP, randomized control version (SVRMPG-SPMRVG-SMVRPG)]”, with 0.160 ± 0.028 nm.
For TssF-TssG-TssE (EAEC) (complex), the maximum binding average response at 150 s, TssK preincubated with 1 mM mutated BCP in assay [3] turned out to be 0.169 nm. The molecule also came in with a maximum binding average response at 150 s, TssK preincubated with 1 mM wild-type BCP in assay [4] of 0.121 nm. For the same molecule, the maximum binding average response at 150 s, TssK preincubated with 1 mM randomized BCP in assay [5] worked out at 0.16 nm. In assay [6], this molecule registered a maximum binding average response at 150 s association of 0.189 nm.
Molecule TssK-6×His (EAEC) (natural protein) registered a stoichiometry N in assay [7] of 3.

B1: biomimetic cyclic peptide (BCP) (peptide)
peptide: SRPVMGSRPVMGSRPVMG
modifications: head-to-tail cyclization
In assay [8], B1 gave a Kd of 60 µM.

A word on the stoichiometry N: it is the number of molecules, sites or subunits per partner or assembly. A word on the Kd: it is a measure of binding affinity in units of concentration. A lower Kd goes with higher affinity.

Values taken from paper PMC8406304, “Inhibiting Type VI Secretion System Activity with a Biomimetic Peptide Designed To Target the Baseplate Wedge Complex” (mBio, 2021).
